Measurements from patent publication US20230242645A1.

How the values were obtained:
[1] = molecular target: mouse PD-L1 on 293F cells (WBP315.293F.mPro1.C1) (mouse) (UniProt Q9EP73); assay: FACS on mouse PD-L1 expressing 293F cells, FITC anti-human IgG
[2] = molecular target: cynomolgus monkey PD-L1 on 293F cells (WBP315.293F.cPro1.2A) (cynomolgus monkey) (UniProt G7PSE7); assay: FACS on cynomolgus PD-L1 expressing 293F cells, FITC anti-human IgG
[3] = molecular target: human PD-L1 extracellular domain, his tag (W315-hPro1.ECD.his) (human) (UniProt Q9NZQ7); assay: SPR (Biacore T200), antibody captured on anti-human Fc, antigen as analyte, 25 °C
Chain of human PD-L1 extracellular domain, his tag (W315-hPro1.ECD.his) (human) (Q9NZQ7 19-238): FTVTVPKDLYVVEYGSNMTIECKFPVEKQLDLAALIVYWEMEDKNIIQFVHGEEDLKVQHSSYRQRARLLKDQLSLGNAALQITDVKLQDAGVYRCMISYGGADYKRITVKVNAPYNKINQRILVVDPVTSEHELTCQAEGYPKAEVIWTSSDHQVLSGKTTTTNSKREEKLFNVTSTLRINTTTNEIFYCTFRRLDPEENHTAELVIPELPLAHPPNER

[4] = molecular target: human PD-L1 on CHO-K1 cells (WBP315.CHO-K1.hPro1.C11) (human) (UniProt Q9NZQ7); assay: FACS on human PD-L1 expressing CHO-K1 cells, FITC anti-human IgG
Chain of human PD-L1 on CHO-K1 cells (WBP315.CHO-K1.hPro1.C11) (human) (Q9NZQ7 19-290): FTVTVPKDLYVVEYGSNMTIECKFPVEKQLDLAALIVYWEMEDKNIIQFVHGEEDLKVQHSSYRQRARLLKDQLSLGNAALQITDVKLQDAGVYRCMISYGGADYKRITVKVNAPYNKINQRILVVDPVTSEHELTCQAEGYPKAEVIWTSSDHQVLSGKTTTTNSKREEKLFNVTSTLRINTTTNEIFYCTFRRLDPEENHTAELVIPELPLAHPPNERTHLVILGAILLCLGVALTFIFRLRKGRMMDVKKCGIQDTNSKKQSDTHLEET

Chain of mouse PD-L1 on 293F cells (WBP315.293F.mPro1.C1) (mouse) (Q9EP73 19-290): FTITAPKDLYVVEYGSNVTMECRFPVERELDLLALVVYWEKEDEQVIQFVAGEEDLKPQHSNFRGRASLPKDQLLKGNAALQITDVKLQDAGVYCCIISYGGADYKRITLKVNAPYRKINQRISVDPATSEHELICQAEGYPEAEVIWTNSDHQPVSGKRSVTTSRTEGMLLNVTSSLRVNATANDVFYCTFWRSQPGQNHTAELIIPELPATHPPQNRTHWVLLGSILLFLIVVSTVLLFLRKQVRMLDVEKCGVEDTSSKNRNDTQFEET
Chain of cynomolgus monkey PD-L1 on 293F cells (WBP315.293F.cPro1.2A) (cynomolgus monkey) (G7PSE7 entry or part of it limits assumed): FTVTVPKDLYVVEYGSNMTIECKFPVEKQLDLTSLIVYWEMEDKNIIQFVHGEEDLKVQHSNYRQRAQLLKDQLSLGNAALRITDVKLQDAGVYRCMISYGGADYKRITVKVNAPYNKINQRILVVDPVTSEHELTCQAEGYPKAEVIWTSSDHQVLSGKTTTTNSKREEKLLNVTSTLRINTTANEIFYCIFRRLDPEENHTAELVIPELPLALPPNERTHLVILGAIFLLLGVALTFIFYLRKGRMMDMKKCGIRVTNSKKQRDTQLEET

EC50 (read off the curve) [1]: 2 nM
EC50 (read off the curve) [2]: 2 nM
Kd [3]: 0.0608 nM
EC50 (read off the curve) [4]: 0.1 nM
Substance: W315-BMK8.uIgG1K(RKNA) (Atezolizumab) (antibody)
